In publication PMC4450592:

Key:
[1] = target: HIS-gG3PD (full-length gG3PD, N-terminal 6xHIS-tagged) (Giardia duodenalis (isolate WB clone C6)); assay: native gel or EMSA; 3-12% Blue Native PAGE of purified HIS-tagged recombinant proteins (1 μg by the methods, 3 μmol by the legend), silver stain or anti-HIS blot
[2] = target: HIS-gG3PD_C (C-terminal half of gG3PD, N-terminal 6xHIS-tagged) (Giardia duodenalis (isolate WB clone C6)); assay: as above

| Substance | stoichiometry N [1] | stoichiometry N [2] |
| --- | --- | --- |
| HIS-gG3PD (full-length gG3PD, N-terminal 6xHIS-tagged) (enzyme) | 2 |  |
| HIS-gG3PD_C (C-terminal half of gG3PD, N-terminal 6xHIS-tagged) (domain or fragment) |  | 2 |
